Read-outs that look alike come from different tables or passages of the source.
What was measured:
Experiment in all cases: fluorescence polarisation
KaiC [1] = molecular target: T1, KaiC (Synechococcus elongatus, UniProt Q79PF4 1-519)
T1 sequence (looked up): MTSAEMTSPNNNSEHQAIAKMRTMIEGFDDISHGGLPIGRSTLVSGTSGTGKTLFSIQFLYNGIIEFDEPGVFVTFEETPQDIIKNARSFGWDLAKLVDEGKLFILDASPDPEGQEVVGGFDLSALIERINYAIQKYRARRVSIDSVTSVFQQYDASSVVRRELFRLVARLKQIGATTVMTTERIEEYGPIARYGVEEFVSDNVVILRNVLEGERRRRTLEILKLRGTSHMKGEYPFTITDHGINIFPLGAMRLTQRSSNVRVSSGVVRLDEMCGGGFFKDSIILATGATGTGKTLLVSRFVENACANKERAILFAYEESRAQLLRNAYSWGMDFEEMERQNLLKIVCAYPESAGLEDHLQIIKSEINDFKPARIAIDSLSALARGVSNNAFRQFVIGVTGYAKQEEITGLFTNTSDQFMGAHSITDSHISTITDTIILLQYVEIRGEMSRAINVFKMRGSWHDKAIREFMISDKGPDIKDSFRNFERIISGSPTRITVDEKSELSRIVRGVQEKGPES

KaiC [2] = molecular target: T1, KaiC; remark: listed apart in the source
KaiC-EA = molecular target: T2, KaiC-EA (Synechococcus elongatus, UniProt Q79PF4 1-519, S431E (KaiC-EA) | T432A (KaiC-EA))
T2 sequence (looked up): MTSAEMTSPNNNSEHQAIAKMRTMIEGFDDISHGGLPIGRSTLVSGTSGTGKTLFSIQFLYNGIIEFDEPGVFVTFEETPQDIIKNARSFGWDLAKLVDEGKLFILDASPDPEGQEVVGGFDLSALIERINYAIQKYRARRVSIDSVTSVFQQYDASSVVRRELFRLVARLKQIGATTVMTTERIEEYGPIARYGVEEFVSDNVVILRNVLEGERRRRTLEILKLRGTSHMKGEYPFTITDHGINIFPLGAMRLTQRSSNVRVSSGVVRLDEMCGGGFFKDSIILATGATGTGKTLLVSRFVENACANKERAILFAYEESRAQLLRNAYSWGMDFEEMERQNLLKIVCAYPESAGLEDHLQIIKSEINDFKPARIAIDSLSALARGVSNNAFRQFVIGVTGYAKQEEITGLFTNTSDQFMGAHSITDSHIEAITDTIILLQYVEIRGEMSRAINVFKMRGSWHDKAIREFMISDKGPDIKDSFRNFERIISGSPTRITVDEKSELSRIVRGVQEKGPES

[3] = molecular target: T3, circadian input kinase A, CikA (Synechococcus elongatus, UniProt Q9KHI5 1-754, fluorescent probe attached by sortase A-mediated ligation)
T3 sequence (looked up): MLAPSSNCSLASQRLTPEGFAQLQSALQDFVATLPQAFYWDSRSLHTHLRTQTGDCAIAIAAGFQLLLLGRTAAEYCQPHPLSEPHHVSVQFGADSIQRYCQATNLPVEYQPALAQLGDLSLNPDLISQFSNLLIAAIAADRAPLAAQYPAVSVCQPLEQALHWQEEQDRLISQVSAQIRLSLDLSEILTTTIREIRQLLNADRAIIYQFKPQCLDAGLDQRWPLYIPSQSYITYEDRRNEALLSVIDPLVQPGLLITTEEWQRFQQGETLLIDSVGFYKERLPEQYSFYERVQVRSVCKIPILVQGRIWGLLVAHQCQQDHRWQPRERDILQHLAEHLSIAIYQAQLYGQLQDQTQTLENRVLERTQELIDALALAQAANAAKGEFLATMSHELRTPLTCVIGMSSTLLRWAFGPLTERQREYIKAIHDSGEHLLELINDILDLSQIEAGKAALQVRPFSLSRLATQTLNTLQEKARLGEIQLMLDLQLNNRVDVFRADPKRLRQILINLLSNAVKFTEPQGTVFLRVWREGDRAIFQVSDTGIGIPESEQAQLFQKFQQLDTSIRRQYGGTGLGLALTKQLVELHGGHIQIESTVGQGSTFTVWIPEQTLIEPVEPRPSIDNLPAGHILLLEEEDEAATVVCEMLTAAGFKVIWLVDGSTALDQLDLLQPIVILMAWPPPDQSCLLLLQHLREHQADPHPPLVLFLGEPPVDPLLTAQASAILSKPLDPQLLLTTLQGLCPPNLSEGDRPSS

B1: SasA-H28A-Q94A (enzyme, Synechococcus elongatus, UniProt Q06904 1-387, looked up)
chain: MGESLSPQALAQPLLLQLFVDTRPLSQAIVQRVKNILAAVEATVPISLQVINVADQPQLVEYYRLVVTPALVKIGPGSRQVLSGIDLTDQLANALPQWLVQQEAFFADREPPEVNIPFTELGQPETPALQQADAFFQLQQQYADLSERTKFLEQVIALVAHDLRNPLTAALLAVDTIQIRSQSFSVATAKEMQGLCSLFDQARSQLREIERMIAEILEATRHSGESLRINPREVVFEPLLQQVLEQLHERWRSKQQQLITDVPGDLPTLYADPDRLRQVLVNLLDNAIKYTPPGGTITIAALHRTSQKVQISISDTGSGIPRDQLSVIFKNLVRLSRDSSQEGYGIGLSVCQRIVQAHFGRIWVASELGQGSTFHFTMPVYRYTMPC
B1: binds (KaiC [1]).

B2: KaiA (natural protein, Synechococcus elongatus, UniProt Q79PF6 1-284, looked up)
chain: MLSQIAICIWVESTAILQDCQRALSADRYQLQVCESGEMLLEYAQTHRDQIDCLILVAANPSFRAVVQQLCFEGVVVPAIVVGDRDSEDPDEPAKEQLYHSAELHLGIHQLEQLPYQVDAALAEFLRLAPVETMADHIMLMGANHDPELSSQQRDLAQRLQERLGYLGVYYKRDPDRFLRNLPAYESQKLHQAMQTSYREIVLSYFSPNSNLNQSIDNFVNMAFFADVPVTKVVEIHMELMDEFAKKLRVEGRSEDILLDYRLTLIDVIAHLCEMYRRSIPRET
modifications: fluorescent probe attached by sortase A-mediated ligation
B2: binds (KaiC [2]).

B3: KaiB (natural protein, Synechococcus elongatus, UniProt Q79PF5 1-102, looked up)
chain: MSPRKTYILKLYVAGNTPNSVRALKTLKNILEVEFQGVYALKVIDVLKNPQLAEEDKILATPTLAKVLPLPVRRIIGDLSDREKVLIGLDLLYGELQDSDDF
modifications: fluorescent probe attached by sortase A-mediated ligation
B3: binds (KaiC [2]); binds (KaiC-EA).

B4: KaiB-KaiC complex (complex, Synechococcus elongatus)
chain 1: MSPRKTYILKLYVAGNTPNSVRALKTLKNILEVEFQGVYALKVIDVLKNPQLAEEDKILATPTLAKVLPLPVRRIIGDLSDREKVLIGLDLLYGELQDSDDF
chain 2: MTSAEMTSPNNNSEHQAIAKMRTMIEGFDDISHGGLPIGRSTLVSGTSGTGKTLFSIQFLYNGIIEFDEPGVFVTFEETPQDIIKNARSFGWDLAKLVDEGKLFILDASPDPEGQEVVGGFDLSALIERINYAIQKYRARRVSIDSVTSVFQQYDASSVVRRELFRLVARLKQIGATTVMTTERIEEYGPIARYGVEEFVSDNVVILRNVLEGERRRRTLEILKLRGTSHMKGEYPFTITDHGINIFPLGAMRLTQRSSNVRVSSGVVRLDEMCGGGFFKDSIILATGATGTGKTLLVSRFVENACANKERAILFAYEESRAQLLRNAYSWGMDFEEMERQNLLKIVCAYPESAGLEDHLQIIKSEINDFKPARIAIDSLSALARGVSNNAFRQFVIGVTGYAKQEEITGLFTNTSDQFMGAHSITDSHISTITDTIILLQYVEIRGEMSRAINVFKMRGSWHDKAIREFMISDKGPDIKDSFRNFERIISGSPTRITVDEKSELSRIVRGVQEKGPES
B4: binds [3].
